Assay [1] deals with T1, EGFR-Wt (Homo sapiens, UniProt P00533).
T1 construct: with the advantage of testing full-length integral membrane proteins; (GGGGS)2 linker-Cub (human ubiquitin aa 35-76)-GAL4(1-147)-mNFkB(364-550) (C); expressed in transfected cells
As to the kind of experiment: MaMTH EGFR-interactor screen, lentiviral preys against EGFR-wildtype bait (interaction score). The class given is cell-based. The note with it: MaMTH interaction score of prey with EGFR-Wt bait, mean. The method, boiled down: (§1)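 Interaction score is the luciferase fold-change versus averaged negative controls (Fabp5, Pex19, Pex7, GABBR2), with >1 called interacting. Luciferase was measured 24 h after triplicate bait transfection. This followed single-copy prey transduction (MOI ~0.3-0.4) of GAL4UAS-luciferase HEK293T cells and ≥48 h puromycin selection.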

Assay [2] concerns EGFR-Wt. The description is as above. In kind it is cell-based, human. As to conditions: ratio of EGFR-Wt mean to EGFR-L858R mean interaction score. Put shortly: as §1
Assay [3] has as its target T2, EGFR-L858R (Homo sapiens, UniProt P00533, L858R).
T2 construct: with the advantage of testing full-length integral membrane proteins; (GGGGS)2 linker-Cub (human ubiquitin aa 35-76)-GAL4(1-147)-mNFkB(364-550) (C); expressed in transfected cells
As to the kind of experiment: MaMTH EGFR-interactor screen, lentiviral preys against EGFR-L858R bait (interaction score). The class given is cell-based. The note with it: MaMTH interaction score of prey with EGFR-L858R bait. Put shortly:
as §1

B1: SOCS6 (protein, UniProt O14544 1-535, looked up)
Suppressor of cytokine …: MKKISLKTLRKSFNLNKSKEETDFMVVQQPSLASDFGKDDSLFGSCYGKDMASCDINGEDEKGGKNRSKSESLMGTLKRRLSAKQKSKGKAGTPSGSSADEDTFSSSSAPIVFKDVRAQRPIRSTSLRSHHYSPAPWPLRPTNSEETCIKMEVRVKALVHSSSPSPALNGVRKDFHDLQSETTCQEQANSLKSSASHNGDLHLHLDEHVPVVIGLMPQDYIQYTVPLDEGMYPLEGSRSYCLDSSSPMEVSAVPPQVGGRAFPEDESQVDQDLVVAPEIFVDQSVNGLLIGTTGVMLQSPRAGHDDVPPLSPLLPPMQNNQIQRNFSGLTGTEAHVAESMRCHLNFDPNSAPGVARVYDSVQSSGPMVVTSLTEELKKLAKQGWYWGPITRWEAEGKLANVPDGSFLVRDSSDDRYLLSLSFRSHGKTLHTRIEHSNGRFSFYEQPDVEGHTSIVDLIEHSIRDSENGAFCYSRSRLPGSATYPVRLTNPVSRFMQVRSLQYLCRFVIRQYTRIDLIQKLPLPNKMKDYLQEKHY
Molecule B1 showed an EGFR-Wt mean in assay [1] of 1.22. Moreover, the Wt/L858R in assay [2] is 0.21. In assay [3], this molecule had an EGFR-L858R mean of 5.90.

B2: PTPN2 (protein, UniProt P17706 1-415, looked up)
Tyrosine-protein phosphatase …: MPTTIEREFEELDTQRRWQPLYLEIRNESHDYPHRVAKFPENRNRNRYRDVSPYDHSRVKLQNAENDYINASLVDIEEAQRSYILTQGPLPNTCCHFWLMVWQQKTKAVVMLNRIVEKESVKCAQYWPTDDQEMLFKETGFSVKLLSEDVKSYYTVHLLQLENINSGETRTISHFHYTTWPDFGVPESPASFLNFLFKVRESGSLNPDHGPAVIHCSAGIGRSGTFSLVDTCLVLMEKGDDINIKQVLLNMRKYRMGLIQTPDQLRFSYMAIIEGAKCIKGDSSIQKRWKELSKEDLSPAFDHSPNKIMTEKYNGNRIGLEEEKLTGDRCTGLSSKMQDTMEENSESALRKRIREDRKATTAQKVQQMKQRLNENERKRKRWLYWQPILTKMGFMSVILVGAFVGWTLFFQQNAL
For B2, the EGFR-Wt mean in assay [1] came to 1.27. In addition, in assay [2], the Wt/L858R amounted to 0.93. This molecule displayed an EGFR-L858R mean in assay [3] of 1.36.

B3: MAPK8IP2 (protein, UniProt Q13387 1-824, looked up)
C-Jun-amino-terminal …: MADRAEMFSLSTFHSLSPPGCRPPQDISLEEFDDEDLSEITDDCGLGLSYDSDHCEKDSLSLGRSEQPHPICSFQDDFQEFEMIDDNEEEDDEDEEEEEEEEEGDGEGQEGGDPGSEAPAPGPLIPSPSVEEPHKHRPTTLRLTTLGAQDSLNNNGGFDLVRPASWQETALCSPAPEALRELPGPLPATDTGPGGAQSPVRPGCDCEGNRPAEPPAPGGTSPSSDPGIEADLRSRSSGGRGGRRSSQELSSPGSDSEDAGGARLGRMISSISETELELSSDGGSSSSGRSSHLTNSIEEASSPASEPEPPREPPRRPAFLPVGPDDTNSEYESGSESEPDLSEDADSPWLLSNLVSRMISEGSSPIRCPGQCLSPAPRPPGEPVSPAGGAAQDSQDPEAAAGPGGVELVDMETLCAPPPPAPAAPRPGPAQPGPCLFLSNPTRDTITPLWAAPGRAARPGRACSAACSEEEDEEDDEEEEDAEDSAGSPGGRGTGPSAPRDASLVYDAVKYTLVVDEHTQLELVSLRRCAGLGHDSEEDSGGEASEEEAGAALLGGGQVSGDTSPDSPDLTFSKKFLNVFVNSTSRSSSTESFGLFSCLVNGEEREQTHRAVFRFIPRHPDELELDVDDPVLVEAEEDDFWFRGFNMRTGERGVFPAFYAHAVPGPAKDLLGSKRSPCWVERFDVQFLGSVEVPCHQGNGILCAAMQKIATARKLTVHLRPPASCDLEISLRGVKLSLSGGGPEFQRCSHFFQMKNISFCGCHPRNSCYFGFITKHPLLSRFACHVFVSQESMRPVAQSVGRAFLEYYQEHLAYACPTEDIYLE
In assay [1], B3 came in with an EGFR-Wt mean of 1.52. Also, the Wt/L858R in assay [2] turned out to be 0.93. The EGFR-L858R mean in assay [3] was 1.63.
